Test results from paper PMC12314576, “The Actin‐Binding Prolyl‐Isomerase Par17 Sustains Its Substrate Selectivity by Interdomain Allostery” (Proteins, 2025).

Test system: T1, C[C@H](NC(=O)CCC(=O)O)C(=O)N[C@@H](CCCCN)C(=O)N1CCC[C@H]1C(=O)N[C@@H](Cc1ccccc1)C(=O)Nc1ccc([N+](=O)[O-])cc1
T1 construct: GST-His6 (PreScission site) (N, cleaved yes); made in house; host or cells: E. coli BL21 (DE3) T1r
Test: Protease-coupled isomerase assay (PPIase assay) with the catalytic domain
Assay type: biochemical, human
Conditions: other: as quoted in running text; pH 6.8; 10.0 °C
Procedure: To determine the catalytic efficiency and substrate specificity of Par14 and Par17, we performed a protease‐coupled assay. In this assay, the trans form of a para‐nitroaniline (pNA) tagged model substrate is cleaved by chymotrypsin, and the resulting change in absorption at 390 nm due to free pNA is measured. When the model substrate is added to the protease‐containing buffer, all trans‐Xaa‐Pro isomers are immediately cleaved by chymotrypsin. Therefore, the extent of the first signal burst observed in the absorption spectrum correlates with the amount of trans isomers of the model substrate formed during the experimental dead time. […] The newly formed trans‐Xaa substrates are immediately cleaved, and isomerization can thus be monitored over time (Figure 2). Eighteen different substrate peptides with varying amino acids at the Xaa position (Suc‐Ala‐Xaa‐Pro‐Phe‐pNa) were measured to determine the isomerase activity and substrate selectivity of Par14 (Par17Δ1–25), Par17, and the catalytic domain (Par17Δ1–60) (Table S1). […]
We determined the isomerase activity using the PPIase assay described by. […] A baseline was recorded for 5 min (Cary 100Bio UV/Vis spectrophotometer, Varian/Agilent, Santa Clara, US, λ: 390 nm, bandwidth: 1.0 nm, average time between measurements: 0.5 s, temperature: 10°C). […] The solution was mixed by inverting the cuvette three times and the reaction was recorded for 15 min. […]

Sequence of PPIase domain (Par17Δ1-60) (Homo sapiens) (chain, as listed by the source mutant): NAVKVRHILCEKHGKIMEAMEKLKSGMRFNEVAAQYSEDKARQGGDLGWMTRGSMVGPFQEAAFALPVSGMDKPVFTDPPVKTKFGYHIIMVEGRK

Substance “PPIase domain (Par17Δ1-60) (Homo sapiens)” has a kcat/Km of 3700 M⁻¹ s⁻¹.
